B1: Biotinylated full length PcrA (Geobacillus stearothermophilus), wild type [modified: biotin; biotin] [Geobacillus stearothermophilus] / YvgS/HelD (SF1 helicase), Bacillus subtilis [B. subtilis 168 (endogenous in the cell … (parent)
chain 1: MNFLSEQLLAHLNKEQQEAVRTTEGPLLIMAGAGSGKTRVLTHRIAYLMAEKHVAPWNILAITFTNKAAREMRERVQSLLGGAAEDVWISTFHSMCVRILRRDIDRIGINRNFSILDPTDQLSVMKTILKEKNIDPKKFEPRTILGTISAAKNELLPPEQFAKRASTYYEKVVSDVYQEYQQRLLRNHSLDFDDLIMTTIQLFDRVPDVLHYYQYKFQYIHIDEYQDTNRAQYTLVKKLAERFQNICAVGDADQSIYRWRGADIQNILSFERDYPNAKVILLEQNYRSTKRILQAANEVIEHNVNRKPKRIWTENPEGKPILYYEAMNEADEAQFVAGRIREAVERGERRYRDFAVLYRTNAQSRVMEEMLLKANIPYQIVGGLKFYDRKEIKDILAYLRVIANPDDDLSLLRIINVPKRGIGASTIDKLVRYAADHELSLFEALGELEMIGLGAKAAGALAAFRSQLEQWTQLQEYVSVTELVEEVLDKSGYREMLKAERTIEAQSRLENLDEFLSVTKHFENVSDDKSLIAFLTDLALISDLDELDGTEQAAEGDAVMLMTLHAAKGLEFPVVFLIGMEEGIFPHNRSLEDDDEMEEERRLAYVGITRAEEELVLTSAQMRTLFGNIQMDPPSRFLNEIPAHLLETASRRQAGASRPAVSRPQASGAVGSWKVGDRANHRKWGIGTVVSVRGGGDDQELDIAFPSPIGIKRLLAKFAPIEKV
chain 2: MNQQDKEWKEEQSRIDEVLKELEKKERFLETSAGGLKHDIIGLRKSFWEDVKVNFDDAHEAIETMASIKQQAELLSDREHNHRRMDQQLKRIHQLKKSPYFGRIDFIENGEEQAERIYIGLASCLDEKEEHFLIYDWRAPISSLYYNYSPGKAEYEVPGETIEGEMVLKRQFMIKNGTLKAMFNTDMTIGDEMLQEVLSHHSDTQMKNIVSTIQKEQNQIIRNEKSKILIVQGAAGSGKTSAALQRVAYLLYRHRGVIDAGQIVLFSPNFLFNSYVSSVLPELGEENMEQATFQEYIEHRLGRKFKCESPFDQLEYCLTETKGGDFPTRLAGITWKAGLSFQQFINEYVTRLSSEGMIFKNIIFRGQKLITKEQIQSYFYSLDQNHSIPNRMEQTAKWLLSELNKLEKKERRKDWVVHEAELLDKEDYLDVYKKLQERKRFSESTFNDYQREQQLLAAIIVKKAFKPLKQAVRLLAFLDVTQLYLQLFSGWGGKFQHEKMDAIGELTRSAFTDNKLLYEDAAPFLYMQDLIEGRKKNTKIKHLFIDEAQDYSPFQMAYMRSIFPAASMTVLGDINQSIYAHTINGDQRMDACFEDEPAEYVRLKRTYRSTRQIVEFTKAMLQDGADIEPFNRSGEMPLVVKTEGHESLCQKLAQEIGRLKKKGHETIAVICKTAHQCIQAHAHMSEYTDVRLIHKENQPFQKGVCVIPVYLAKGIEFDAVLVYDASEEHYHTEHDRRLLYTACTRAMHMLAVFYTGEASPFVTAVPPHLYQIAE

Variants of: B1
Experiment: pulldown quantified by mass spectrometry
Conditions: with YvgS/HelD (SF1 helicase), parent: 97, read off a plot

| screen value | Variant |
| --- | --- |
| 9.5 | chain 1 K712A |
| 3.5 | chain 1 L714A |

Reference: PMC5397179
